Data: patent US10792367B2, “Conjugates comprising an GLP-1/glucagon dual agonist, a linker and hyaluronic acid” (SANOFI, dated 2020)
Starred links: 1 amine or outer side, 2 acyl side, 3 side chain; linkers in the order of their positions; H or OH if unused. Non-standard residues stand in square brackets, D forms with d. Groups on a side chain read outwards from the residue. No end group written: not given here. *: point of attachment. γGlu = O=C(O)[C@H](CCC(=O)[*:2])N[*:1]; Stearoyl = CCCCCCCCCCCCCCCCCC(=O)*

Molecular target: human GLP-1 receptor (human, UniProt P43220)
Experiment: cell-based or functional assay

H[dS]QGTFTSDLSKQK([γGlu-Stearoyl])DEQLAKDFIEWLKAGGPSSGAPPPS-NH2 [peptide of SEQ ID NO: 6 (GLP-1/Glucagon agonist, exendin-4 derivative)]
EC50 hGLP-1R (cAMP response, HTRF): 5.1 pM
